The record followed here is patent US20190241886A1 (ADAGENE, published 2019).

In experiment [1] the target is T1, Recombinant human CTLA4-Fc (human, UniProt P16410 36-161, limits assumed).
T1 construct: Coated on the ELISA plate at 1 ug/mL; also called antigen; not shown: Fc part
T1 sequence (looked up): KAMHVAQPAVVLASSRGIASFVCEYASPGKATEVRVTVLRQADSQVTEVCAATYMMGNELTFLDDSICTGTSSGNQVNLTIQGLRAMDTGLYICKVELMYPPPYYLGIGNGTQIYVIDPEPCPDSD
The experiment can be described thus: ELISA EC50 divided by EC50 of parental TY21580 (FIG. 24B). As for the experimental part:
(§1) Recombinant human CTLA4-Fc was diluted to 1μg/mL in PBS and coated on a Maxisorp plate at 4° C. overnight. Plates were blocked with PBS supplemented with 3% non-fat milk at 37° C. for 1 hour. After washing, 100 μL of 3-fold serial dilutions of antibodies were added to each well. After incubation at 37° C. for 1 hour, plates were washed four times, and 100 μL HRP conjugated anti-human IgG (Fab specific) (1:6000 dilution) was added to each well. Plates were incubated at 37° C. for 1 hour, washed four times, and then 50 μL TMB substrate solution was added to each well, and the plate was incubated at room temperature. Absorbance at 450 nm was measured after the reactions were stopped with 50 μL H₂SO₄ per well. The EC₅₀ was evaluated by fitting the ELISA data using the asymmetrical sigmoidal (five-parameter logistic equation) model of GraphPad Prism 6 software.

The target in experiment [2] is T1, Recombinant human CTLA4-Fc. Kind of experiment: ELISA EC50 divided by EC50 of parental TY21580 (FIG. 24A). As for the experimental part: as §1
For experiment [3], the target named is T1, Recombinant human CTLA4-Fc. The experiment can be described thus: ELISA EC50 divided by EC50 of parental TY21580 (FIG. 25). As for the experimental part: as §1

B1: TY22402 (as listed in Table 11) (antibody, V domains shown)
VH: EVQLVESGGGLVQPGGSLRLSCAASGYSISSGYHWSWIRQAPGKGLEWLARIDWDDDKYYSTSLKSRLTISRDNSKNTLYLQLNSLRAEDTAVYYCARSYVYFDYWGQGTLVTVSS
VL: EVGSYIVHHSDCDAFYPYCDSSGRSAGGGGTPLGLAGSGGSDIQLTQSPSSLSASVGDRVTITCRASQSVRGRFLAWYQQKPGKAPKLLIYDASNRATGIPSRFSGSGSGTDFTLTISSLQPEDFATYYCQQSSSWPPTFGQGTKVEIKR
notes: kept apart from m3; Expressed in mammalian cells; isotype not restated
Regarding B1, the Masking efficiency was 554 in experiment [1] and 243 in experiment [2].

B2: TY22404 (as listed in Tables 11 and 14) (antibody, V domains shown)
VH: B1 VH
VL: EVGSYPNPSSDCVPYYYACAYSGRSAGGGGTPLGLAGSGGSDIQLTQSPSSLSASVGDRVTITCRASQSVRGRFLAWYQQKPGKAPKLLIYDASNRATGIPSRFSGSGSGTDFTLTISSLQPEDFATYYCQQSSSWPPTFGQGTKVEIKR
notes: kept apart from m5; Expressed in mammalian cells; isotype not restated
As for B2, the Masking efficiency in experiment [1] stood at 572; in experiment [3], 469; in experiment [2], 308.
